The source of these data is US20250206839A1, “METHODS, COMPOSITIONS AND USES FOR SEMA7A MONOCLONAL ANTIBODIES” (THE REGENTS OF THE UNIVERSITY OF COLORADO, A BODY CORPORATE, priority 2022, published 2025).

Assay [1] has as its system MCF7 cells. Put plainly: Cell viability, crystal violet, 48 h. The assay is classed as cell-based, human. To be noted: MCF7, 500 nM SmAbH1 vs 8 nM Fulvestrant. How it is done: (§1) For proliferation assays, cells were plated at 2000 cells per well of a 96-well dish. Four pictures of different regions in each well were taken every four hours for 48 h using an IncuCyte ZOOM (Essen BioScience, Ann Arbor, MI, USA). Percent confluence was determined using the IncuCyte ZOOM software (Essen BioScience). 66cl4 Sema7A DDK cells were plated in a 96-well plate in triplicate at 1,500 cells/well. They sat down over 24 hours and then were treated with 1000 nM IgG control, 10 nM SmAbH1, 100 nM SmAbH1, 200 nM SmAbH1, 500 nM SmAbH1, or 1000 nM SmAbH1. The plate was promptly transferred to the IncuCyte where photos were taken and analyzed every 4 hours for 7 days. For additional treatment studies in MCF7, TC11 and SSM2 cells ([…]) were plated in a 24-well plate in complete media and allowed to sit down over 24 hours. At 24 hours after plating, cells were treated with 500 nM IgG control, 500 nM SmAbH1, 8 nM Fulvestrant or the combination. The plate was incubated at 37 C for 48 hours, then fixed with 10% NBF and stained with crystal violet.

Assay [2] has as its system SEMA7A OE E0771 mouse mammary carcinoma cells. Put plainly: E0771 SEMA7A OE mouse mammary carcinoma model, in vivo antibody treatment. As to conditions: SmAbH1 alone. How it is done:
For initial in vivo studies with SmABHI. SEMA7A OE E0771 mouse mammary carcinoma cells were injected into mice. Twenty days after carcinoma cells were injected. SmAbH1 (e.g., 12 ug) was administered intraperitoneally to the mice every three days until day 36 post-carcinoma cell injection. Tissues were collected at day 36. Tumors, lungs, and LNs were harvested and processed for IHC and flow cytometry to determine the effect of SEMA7A mAb therapy on cells of the tumor microenvironment (TME). In an additional experiment, tumors were treated at day 28 post-injection with a novel SEMA7A directed antibody, monoclonal antibody clone H1. Fully regressed tumors were removed from treatment at day 50) and the animals were re-challenged with an additional tumor inoculation at day 90 to assess SEMA7A mAb effects. Finally, to examine changes in immune cells in the tumor microenvironment, tumors were treated at day 13 post-inoculation and harvested at day 18. During this time period, tumors were actively regressing (FIGS. 2A-2C).
E0771 model: Female C57/BL6 mice were injected orthotopically into the left and right #4 mammary fat pads with 200,000 E0771 SEMA7A OE mouse mammary carcinoma cells. Tumors were measured every day once tumors became palpable (3 days post injection). […]

For assay [3], the system named is SSM2 cells. Put plainly: Cell viability, crystal violet, 48 h. To be noted: SSM2, 500 nM SmAbH1 vs 8 nM Fulvestrant. The assay is classed as cell-based, mouse. The method, then: as §1
For assay [4], the system named is TC11 cells. Put plainly: Cell viability, crystal violet, 48 h. The assay is classed as cell-based, mouse. As to conditions: TC11, 500 nM SmAbH1 vs 8 nM Fulvestrant. The method, then:
as §1

The target of assay [5] is T1, SEMA7A (Homo sapiens, UniProt O75326).
T1 construct: MCF7 cells endogenously express SEMA7A (75 kDa); endogenous in cells; host or cells: MCF7
T1 sequence (O75326 45-648): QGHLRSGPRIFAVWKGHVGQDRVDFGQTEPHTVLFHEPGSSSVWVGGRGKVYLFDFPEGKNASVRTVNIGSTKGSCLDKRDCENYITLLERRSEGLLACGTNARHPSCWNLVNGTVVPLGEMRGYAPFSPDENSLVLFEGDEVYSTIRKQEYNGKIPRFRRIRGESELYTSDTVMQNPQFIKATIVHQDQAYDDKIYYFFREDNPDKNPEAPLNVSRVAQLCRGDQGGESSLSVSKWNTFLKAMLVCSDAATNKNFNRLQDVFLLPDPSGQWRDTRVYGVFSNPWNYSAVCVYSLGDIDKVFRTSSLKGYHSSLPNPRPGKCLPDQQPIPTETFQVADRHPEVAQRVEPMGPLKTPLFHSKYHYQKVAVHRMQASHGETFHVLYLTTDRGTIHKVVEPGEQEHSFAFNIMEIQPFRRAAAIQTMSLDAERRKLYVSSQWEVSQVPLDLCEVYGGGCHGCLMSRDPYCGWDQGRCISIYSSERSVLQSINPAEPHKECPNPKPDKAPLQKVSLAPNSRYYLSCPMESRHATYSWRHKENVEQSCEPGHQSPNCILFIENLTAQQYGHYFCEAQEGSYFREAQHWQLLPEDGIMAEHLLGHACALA
Put plainly: Western blot binding on MCF7 control and SEMA7A OE cell lysates. To be noted: 200 μg/mL antibody. How it is done:
In another exemplary method, the ability of an anti-SEMA7A monoclonal antibody to bind to SEMATA was tested. In one exemplary method, CUH1 mAb was validated for binding to MCF7 SEMA7A over expressing cell lysate using Western Blot. Specifically. binding of the CUH1 mAb was detected on lysates from MCF7 control cells and SEMA7A overexpressing (OE) cells using 200 μg/mL of SmAbH1. MCF7 cells endogenously express SEMA7A (75 kDa) but OE cells were engineered to overexpress V5 tagged
MCF7 cells were lysed with RIPA containing EDTA (Thermo Scientific) and spun at 14K for 15 min. The supernatant was then quantitated using a Qubit Assay (Invitrogen) standard protocol and mixed 3:1 with Laemmli Sample Buffer (BioRad) with 2-mercaptoethanol and heated at 70 degrees for 10 min. 100 μg of lysate was loaded onto 4-20% Tris-Glycine gel (BioRad) and transferred to a PVDF membrane (Milipore). The membrane was blocked with 5% Bovine Serum Albumin (BSA) for 3 hours and then probed with 200 μg/ml of CUH1 in 5% BSA overnight at 4 degrees with gentle rocking. The membrane was washed three times 15 minutes with TBS-T and then probed with 10 ng/ml Goat Anti-Mouse IgG HRP (Abcam 97040) in 5% BSA for 1 hour at room temp. The membrane was washed and then incubated with 1:1 mix SuperSignal West Pico (Thermo Scientific) for 4 min at room temp.
On the technique in general: Immunoblotting shows a protein as a band on a membrane.

Assay [6] has as its system pNFκB in MDA231 cells. Put plainly: Western blot for phosphorylation of NFκB. As to conditions: MDA231, high SEMA7A. The assay is classed as cell-based, human. The method, then: (§2) In another exemplary method, the ability of the anti-SEMA7A monoclonal antibodies to affect cellular processes related to cell survival was tested. In one exemplary method, human triple negative breast cancer cell lines with low (MDA468) or high (MDA231) levels of SEMA7A were treated with SmAbH1 (CUH1) or commercially available monoclonal antibody-based inhibitors of an integrin receptor for SEMA7A (α6β1) and then evaluated using Western blot for phosphorylation of NFκB (pNFκB), a key survival marker.

The test system of assay [7] is pNFκB in MDA468 cells. Put plainly: Western blot for phosphorylation of NFκB. The assay is classed as cell-based, human. To be noted: MDA468, low SEMA7A. How it is done: as §2

Entries after “also recorded” stand apart in the source; their conditions may differ.

B1: SmAbH1: mouse monoclonal antibody against SEMA7A generated using the 10-mer immunizing peptide … (SEQ ID NO: 2) (antibody, V domains shown)
VH: QVKLQESGTVLARPGASVKMSCKASVYSFTSYWMHWVKQRPGQGLEWIGAIYPGNSDTSYNQKFKGKAKLTAVTSASTAYMELSSLTNEDSAVYYCTRGGAPTMITAYYAMDYWGQGTSVTVSS
VL: DIQMTQTTSSLSASLGDRVTISCRASQDISNYLNWYQQKPDGTVKLLIYYTSRLHSGVPSRFSGSGSGTDYSLTISNLEQEDIATYFCQQGNTLPWTFGGGTKLEIKR
On to B1, for which the “cell viability compared to fulvestrant” value in assay [1], in assay [3] and in assay [4] was “more significantly reduced” throughout. Moreover, the “tumor growth and metastasis compared to anti-PD-L1 and the combination” value in assay [2] is “superior at reducing both tumor growth and metastasis”. Besides, the “binding to SEMA7A in cell lysates” value in assay [5] is “successfully bound to both endogenous (75 kDa) and overexpressed (100 kDa) SEMA7A”. For the same molecule, the “downstream NFκB activation (pNFκB levels)” value in assay [6] is recorded as “blocked downstream NFκB activation; also recorded: the effect was stronger”; in assay [7], “blocked downstream NFκB activation”.
